Source: FireProtDB (doi:10.1002/pro.381)

B1: Guanyl-specific ribonuclease Sa, P05798 (parent)
chain: DVSGTVCLSALPPEATDTLNLIASDGPFPYSQDGVVFQNRESVLPTQSYGYYHEYTVITPGARTRGTRRIITGEATQEDYYTGDHYATFSLIDQTC

Variants of: B1
Conditions: Kitasatospora aureofaciens, pH 7, CD, MOPS 30 mM, structure 1RGG, whole UniProt chain shown

Variant | ddG of mutation (higher = less stable) (25 °C, GdnHCl) [kcal/mol] | denaturant m value (25 °C, GdnHCl) [kcal/mol/M] | denaturant midpoint (higher = more stable) (25 °C, GdnHCl) [M] | unfolding free energy (25 °C, GdnHCl) [kcal/mol] | ddG of mutation (higher = less stable) (60 °C, Thermal) [kcal/mol] | heat capacity change of unfolding (60 °C, Thermal) [kcal/mol/K] | Tm (Thermal) [°C] | change of melting temperature, mutant - wild type (higher = more stable) (Thermal) [°C] | heat capacity change of unfolding (Thermal) [kcal/mol/K] | unfolding enthalpy (van 't Hoff) (Thermal) [kcal/mol] | ddG of mutation (higher = less stable) (25 °C, Urea) [kcal/mol] | denaturant m value (25 °C, Urea) [kcal/mol/M] | denaturant midpoint (higher = more stable) (25 °C, Urea) [M] | unfolding free energy (25 °C, Urea) [kcal/mol]
D25K E74K S31P S42G S48P T76P Q77G D79F I92A | -1.9 | 2.78 | 3.22 | 9.2 | 3.2 | 1.33 | 63.9 | -13.3 | 1.33 | 102 |  |  |  | 
D25K E74K S31P S42G S48P T76P Q77G D79F I92D | 2.2 | 2.73 | 2.01 | 5.5 | 7.1 | 1.41 | 50.2 | -26.9 | 1.41 | 84 |  |  |  | 
D25K E74K S31P S42G S48P T76P Q77G I92D | 5.1 | 2.67 | 0.83 | 2.2 | 9.6 | 1.41 | 34 | -32.6 | 1.41 | 73 |  |  |  | 
D25K E74K S31P S42G S48P T76P Q77G D79F | -6.3 | 2.51 | 5.4 | 13.6 | -7.7 | 1.07 |  |  |  |  |  |  |  | 
D25K E74K S31P S42G S48P T76P Q77G D79A | -4.9 | 2.4 | 5.05 | 12.1 | -2.2 | 1.15 | 75.3 | 8.7 | 1.15 | 102 |  |  |  | 
D25K E74K S31P S42G S48P T76P Q77G D79F Y80A | -0.1 | 2.69 | 2.74 | 7.4 | 4.8 | 1.29 | 58 | -19.2 | 1.29 | 87 |  |  |  | 
D25K E74K | 0.2 | 2.61 | 2.7 | 7.1 | -0.8 |  | 51.5 | 2.2 |  | 92 | -0.8 | 1.02 | 6.51 | 6.6
D25K E74K S31P S42G S48P T76P Q77G D79F I70D |  |  |  |  | 9.5 | 1.08 | 41.5 | -35.6 | 1.08 | 78 |  |  |  | 
D25K E74K S31P S42G S48P T76P Q77G | -3.9 | 2.52 | 4.44 | 11.2 | -5.3 | 1.68 | 66.6 | 17.3 | 1.68 | 105 |  |  |  | 
